Experimental data: the supplement of paper PMC11246515
± gives the standard deviation of the averaged measurements.

Assay: total protein half-life in vivo (active degradation + dilution); higher = more stable protein
[1] = E. coli NCM3722 delta-smpB, growth: N-lim chemostat, doubling time 6 h
[2] = wild type E. coli NCM3722, growth: C-lim chemostat, doubling time 3 h
[3] = wild type E. coli NCM3722, growth: C-lim chemostat, doubling time 6 h
[4] = wild type E. coli NCM3722, growth: C-lim chemostat, doubling time 12 h
[5] = wild type E. coli NCM3722, growth: N-lim chemostat, doubling time 6 h
[6] = wild type E. coli NCM3722, growth: N-lim chemostat, doubling time 12 h
[7] = wild type E. coli NCM3722, growth: P-lim chemostat, doubling time 6 h
[8] = wild type E. coli NCM3722, growth: P-lim chemostat, doubling time 12 h
[9] = E. coli NCM3722 delta-clpP delta-lon delta-hslV, growth: N-lim chemostat, doubling time 6 h
[10] = E. coli NCM3722 delta-clpP, growth: N-lim chemostat, doubling time 6 h
[11] = E. coli NCM3722 delta-hslV, growth: N-lim chemostat, doubling time 6 h
[12] = E. coli NCM3722 delta-lon, growth: N-lim chemostat, doubling time 6 h

Sequence | total protein half-life in vivo [1] | total protein half-life in vivo [2] | total protein half-life in vivo [3] | total protein half-life in vivo [4] | total protein half-life in vivo [5] | total protein half-life in vivo [6] | total protein half-life in vivo [7] | total protein half-life in vivo [8] | total protein half-life in vivo [9] | total protein half-life in vivo [10] | total protein half-life in vivo [11] | total protein half-life in vivo [12]
MSYLNLRLYQRNTQCLHIRKHRLAGFFVRLVVACAFAAQAPLSSADLYFNPRFLADDPQAVADLSRFENGQELPPGTYRVDIYLNNGYMATRDVTFNTGDSEQGIVPCLTRAQLASMGLNTASVAGMNLLADDACVPLTTMVQDATAHLDVGQQRLNLTIPQAFMSNRARGYIPPELWDPGINAGLLNYNFSGNSVQNRIGGNSHYAYLNLQSGLNIGAWRLRDNTTWSYNSSDRSSGSKNKWQHINTWLERDIIPLRSRLTLGDGYTQGDIFDGINFRGAQLASDDNMLPDSQRGFAPVIHGIARGTAQVTIKQNGYDIYNSTVPPGPFTINDIYAAGNSGDLQVTIKEADGSTQIFTVPYSSVPLLQREGHTRYSITAGEYRSGNAQQEKTRFFQSTLLHGLPAGWTIYGGTQLADRYRAFNFGIGKNMGALGALSVDMTQANSTLPDDSQHDGQSVRFLYNKSLNESGTNIQLVGYRYSTSGYFNFADTTYSRMNGYNIETQDGVIQVKPKFTDYYNLAYNKRGKLQLTVTQQLGRTSTLYLSGSHQTYWGTSNVDEQFQAGLNTAFEDINWTLSYSLTKNAWQKGRDQMLALNVNIPFSHWLRSDSKSQWRHASASYSMSHDLNGRMTNLAGVYGTLLEDNNLSYSVQTGYAGGGDGNSGSTGYATLNYRGGYGNANIGYSHSDDIKQLYYGVSGGVLAHANGVTLGQPLNDTVVLVKAPGAKDAKVENQTGVRTDWRGYAVLPYATEYRENRVALDTNTLADNVDLDNAVANVVPTRGAIVRAEFKARVGIKLLMTLTHNNKPLPFGAMVTSESSQSSGIVADNGQVYLSGMPLAGKVQVKWGEEENAHCVANYQLPPESQQQLLTQLSAECR | 5.97 ± 0.21 h | 3.14 h | 6.02 h | > 16 h | > 8 h | > 16 h | 6.2 h | > 16 h | – | – | – | –
MSYPSLFAPLDLGFTTLKNRVLMGSMHTGLEEYPDGAERLAAFYAERARHGVALIVSGGIAPDLTGVGMEGGAMLNDASQIPHHRTITEAVHQEGGKIALQILHTGRYSYQPHLVAPSALQAPINRFVPHELSHEEILQLIDNFARCAQLAREAGYDGVEVMGSEGYLINEFLTLRTNQRSDQWGGDYRNRMRFAVEVVRAVRERVGNDFIIIYRLSMLDLVEDGGTFAETVELAQAIEAAGATIINTGIGWHEARIPTIATPVPRGAFSWVTRKLKGHVSLPLVTTNRINDPQVADDILSRGDADMVSMARPFLADAELLSKAQSGRADEINTCIGCNQACLDQIFVGKVTSCLVNPRACHETKMPILPAVQKKNLAVVGAGPAGLAFAINAAARGHQVTLFDAHSEIGGQFNIAKQIPGKEEFYETLRYYRRMIEVTGVTLKLNHTVTADQLQAFDETILASGIVPRTPPIDGIDHPKVLSYLDVLRDKAPVGNKVAIIGCGGIGFDTAMYLSQPGESTSQNIAGFCNEWGIDSSLQQAGGLSPQGMQIPRSPRQIVMLQRKASKPGQGLGKTTGWIHRTTLLSRGVKMIPGVSYQKIDDDGLHVVINGETQVLAVDNVVICAGQEPNRALAQPLIDSGKTVHLIGGCDVAMELDARRAIAQGTRLALEI | 2.74 ± 0.96 h | 2.93 ± 0.18 h | 4.94 ± 0.13 h | 9.61 ± 2.1 h | – | – | 5.18 ± 0.79 h | 10.6 ± 0.13 h | 6.33 ± 2.2 h | 3.52 ± 0.043 h | – | –
MSYQYVNVVTINKVAVIEFNYGRKLNALSKVFIDDLMQALSDLNRPEIRCIILRAPSGSKVFSAGHDIHELPSGGRDPLSYDDPLRQITRMIQKFPKPIISMVEGSVWGGAFEMIMSSDLIIAASTSTFSMTPVNLGVPYNLVGIHNLTRDAGFHIVKELIFTASPITAQRALAVGILNHVVEVEELEDFTLQMAHHISEKAPLAIAVIKEELRVLGEAHTMNSDEFERIQGMRRAVYDSEDYQEGMNAFLEKRKPNFVGH | – | 2.48 h | 2.79 h | 6.64 h | – | – | – | – | 5.13 h | – | – | –
MSYTLPSLPYAYDALEPHFDKQTMEIHHTKHHQTYVNNANAALESLPEFANLPVEELITKLDQLPADKKTVLRNNAGGHANHSLFWKGLKKGTTLQGDLKAAIERDFGSVDNFKAEFEKAAASRFGSGWAWLVLKGDKLAVVSTANQDSPLMGEAISGASGFPIMGLDVWEHAYYLKFQNRRPDYIKEFWNVVNWDEAAARFAAKK | 4.96 ± 1.2 h | – | 5.11 ± 0.91 h | 11.3 ± 1.7 h | 4.87 ± 1.1 h | 9.5 ± 0.12 h | 5.31 ± 0.55 h | 11.3 ± 0.15 h | 6.4 ± 0.78 h | 5.61 ± 0.3 h | 5.5 ± 0.16 h | 7.05 ± 1.2 h
MTAFSTLNVLPPAQLTNLNELGYLTMTPVQAAALPAILAGKDVRVQAKTGSGKTAAFGLGLLQQIDASLFQTQALVLCPTRELADQVAGELRRLARFLPNTKILTLCGGQPFGMQRDSLQHAPHIIVATPGRLLDHLQKGTVSLDALNTLVMDEADRMLDMGFSDAIDDVIRFAPASRQTLLFSATWPEAIAAISGRVQRDPLAIEIDSTDALPPIEQQFYETSSKGKIPLLQRLLSLHQPSSCVVFCNTKKDCQAVCDALNEVGQSALSLHGDLEQRDRDQTLVRFANGSARVLVATDVAARGLDIKSLELVVNFELAWDPEVHVHRIGRTARAGNSGLAISFCAPEEAQRANIISDMLQIKLNWQTPPANSSIATLEAEMATLCIDGGKKAKMRPGDVLGALTGDIGLDGADIGKIAVHPAHVYVAVRQAVAHKAWKQLQGGKIKGKTCRVRLLK | – | – | 3.78 h | 8.81 ± 4.4 h | – | – | 2.59 h | – | 5.81 ± 1.4 h | 2.58 h | – | –
MTALALFDLLKPNYALATQVEFTDPEIVAEYITYPSPNGHGEVRGYLVKPAKMSGKTPAVVVVHENRGLNPYIEDVARRVAKAGYIALAPDGLSSVGGYPGNDDKGRELQQQVDPTN [Q7DFU6] | – | – | – | – | – | – | – | – | 2.25 h | – | – | –
MTALNKKWLSGLVAGALMAVSVGTLAAEQKTLHIYNWSDYIAPDTVANFEKETGIKVVYDVFDSNEVLEGKLMAGSTGFDLVVPSASFLERQLTAGVFQPLDKSKLPEWKNLDPELLKLVAKHDPDNKFAMPYMWATTGIGYNVDKVKAVLGENAPVDSWDLILKPENLEKLKSCGVSFLDAPEEVFATVLNYLGKDPNSTKADDYTGPATDLLLKLRPNIRYFHSSQYINDLANGDICVAIGWAGDVWQASNRAKEAKNGVNVSFSIPKEGAMAFFDVFAMPADAKNKDEAYQFLNYLLRPDVVAHISDHVFYANANKAATPLVSAEVRENPGIYPPADVRAKLFTLKVQDPKIDRVRTRAWTKVKSGK | 5.81 ± 0.13 h | 2.94 ± 0.29 h | 6.34 ± 0.41 h | 13 ± 0.15 h | 6.215 ± 0.018 h | 12.89 ± 0.11 h | 6.46 ± 0.65 h | 13.7 ± 1.1 h | 4.64 ± 0.23 h | 6.13 ± 0.89 h | 6.35 ± 0.38 h | 7 ± 1.2 h
